# B1: 17 bp central mCpG, SPR (dsDNA)
# DNA 1: GAGGCGCTCGGCGGCAG
# DNA 2: CTGCCGCCGAGCGCCTC
# modifications: 5-methyl-C at position 9 of strand 1 (central CpG); complement mC at position 8 implied, not given
# B2: 17 bp central mCpG, FP (dsDNA)
# DNA 1: GAGGCGCTCGGCGGCAG
# DNA 2: CTGCCGCCGAGCGCCTC
# modifications: 5-methyl-C at position 9 of strand 1 (central CpG); complement mC at position 8 implied, not given
# Experiments:
# MBD2FLsc (human) [1] = target: MBD2FLsc (human) (UniProt Q9UBB5); assay: SPR; details: 5-methyl-C at position 9 of strand 1 (central CpG), complement mC at position 8 implied, not given, SPR: 10 mM HEPES pH 7.4, 50 mM NaCl, 3 mM MgCl2, 0.1 mM EDTA, 1 mM DTT, 0.05% polysorbate 20, FP: 10 mM HEPES pH 7.5, 50 or 150 mM NaCl
# Chain of MBD2FLsc (human) (Q9UBB5 whole entry, the tested form may be a part): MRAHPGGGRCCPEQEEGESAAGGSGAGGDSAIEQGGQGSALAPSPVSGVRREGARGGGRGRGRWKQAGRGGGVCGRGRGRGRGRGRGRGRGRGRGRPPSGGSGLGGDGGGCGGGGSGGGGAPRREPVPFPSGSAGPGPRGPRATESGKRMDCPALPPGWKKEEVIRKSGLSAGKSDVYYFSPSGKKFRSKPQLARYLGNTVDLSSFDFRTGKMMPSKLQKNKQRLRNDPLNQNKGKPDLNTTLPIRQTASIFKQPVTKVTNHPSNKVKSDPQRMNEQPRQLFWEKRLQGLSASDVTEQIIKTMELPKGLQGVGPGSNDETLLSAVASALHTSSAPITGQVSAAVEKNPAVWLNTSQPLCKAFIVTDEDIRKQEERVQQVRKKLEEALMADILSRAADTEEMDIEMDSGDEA
# MBD2FLsc (human) [2] = target: MBD2FLsc (human) (UniProt Q9UBB5); assay: fluorescence polarization; details: 5-methyl-C at position 9 of strand 1 (central CpG), complement mC at position 8 implied, not given, SPR: 10 mM HEPES pH 7.4, 50 mM NaCl, 3 mM MgCl2, 0.1 mM EDTA, 1 mM DTT, 0.05% polysorbate 20, FP: 10 mM HEPES pH 7.5, 50 or 150 mM NaCl
# MBD2(150-260) [3] = target: T1, MBD2(150-260) (human, UniProt Q9UBB5 150-260); assay: SPR; 50 mM NaCl, 3 mM Mg2+; SPR: 10 mM HEPES pH 7.4, 50 mM NaCl, 3 mM MgCl2, 0.1 mM EDTA, 1 mM DTT, 0.05% polysorbate 20; FP: 10 mM HEPES pH 7.5, 50 or 150 mM NaCl, 3 mM MgCl2, 0.1 mM EDTA, 1 mM DTT, 0.02% azide; temperature not stated; details: protein: recombinant; tags: thioredoxin-His fusion (modified pET32a; tag retained); label: 3' biotin on forward strand; blunt
# T1 sequence (Q9UBB5 150-260): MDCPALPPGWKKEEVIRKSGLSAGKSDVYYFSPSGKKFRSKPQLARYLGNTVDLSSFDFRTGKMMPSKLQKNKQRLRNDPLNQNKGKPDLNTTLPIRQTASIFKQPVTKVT
# MBD2MBD [4] = target: T2, MBD2MBD (human, UniProt Q9UBB5 150-214); assay: SPR steady state; 50 mM NaCl, 3 mM Mg2+; SPR: 10 mM HEPES pH 7.4, 50 mM NaCl, 3 mM MgCl2, 0.1 mM EDTA, 1 mM DTT, 0.05% polysorbate 20; FP: 10 mM HEPES pH 7.5, 50 or 150 mM NaCl, 3 mM MgCl2, 0.1 mM EDTA, 1 mM DTT, 0.02% azide; temperature not stated; details: protein: recombinant; tags: thioredoxin-His fusion (modified pET32a; tag retained); label: 3' biotin on forward strand; blunt
# T2 sequence (Q9UBB5 150-214): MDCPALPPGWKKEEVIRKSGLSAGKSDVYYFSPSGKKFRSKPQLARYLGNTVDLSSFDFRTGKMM
# MBD2MBD [5] = target: T2, MBD2MBD; assay: fluorescence polarization; 50 mM NaCl; SPR: 10 mM HEPES pH 7.4, 50 mM NaCl, 3 mM MgCl2, 0.1 mM EDTA, 1 mM DTT, 0.05% polysorbate 20; FP: 10 mM HEPES pH 7.5, 50 or 150 mM NaCl, 3 mM MgCl2, 0.1 mM EDTA, 1 mM DTT, 0.02% azide; temperature not stated; details: protein: recombinant; tags: thioredoxin-His fusion (modified pET32a; tag retained); label: 3' FAM on reverse strand; blunt
# MBD2(150-260) [6] = target: T1, MBD2(150-260); assay: as above; details: protein: recombinant; tags: thioredoxin-His fusion (modified pET32a; tag retained); label: 3' FAM on reverse strand; blunt
molecule,measurement,setting,value
"GAGGCGCTCGGCGGCAG (double strand) [17 bp central mCpG, SPR]",Kd,MBD2FLsc (human) [1],2 nM
"GAGGCGCTCGGCGGCAG (double strand) [17 bp central mCpG, FP]",binding signal (fold affinity vs 50 mM NaCl),MBD2FLsc (human) [2],0.1
same,binding signal (fold affinity vs MBD2MBD),MBD2FLsc (human) [2],100
B1,Kd,MBD2(150-260) [3],20 nM
same,Kd,MBD2MBD [4],330 nM
B2,binding signal,MBD2MBD [5],~1 fold affinity (reference)
same,binding signal,MBD2(150-260) [6],~100 fold affinity vs MBD2MBD
